Kd data for one molecule are collected here from paper PMC5377317, “Generation of Aptamers from A Primer-Free Randomized ssDNA Library Using Magnetic-Assisted Rapid Aptamer Selection”.

The target of the series is T1, C-reactive protein (CRP) (human, UniProt P02741 19-224).
T1 sequence: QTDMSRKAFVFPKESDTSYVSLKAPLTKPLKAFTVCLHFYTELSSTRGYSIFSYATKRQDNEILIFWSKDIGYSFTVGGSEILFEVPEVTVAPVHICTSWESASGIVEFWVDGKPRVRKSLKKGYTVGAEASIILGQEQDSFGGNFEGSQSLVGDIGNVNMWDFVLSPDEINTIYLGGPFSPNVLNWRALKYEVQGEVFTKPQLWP
As to the kind of experiment: magnetic bead pull-down with q-PCR, saturation fit; apparent Kd; 2 mM MgCl2; CRP-MNPs; BD buffer: 50 mM NaH2PO4 pH 8.0, 150 mM NaCl, 5 mM KCl, 2 mM MgCl2, 0.05% Tween-20; room temperature, 30 min; aptamer 1.5625-200 nM. The note with it: protein: commercial; tags: biotinylated (EZ-Link Sulfo-NHS-Biotin), on streptavidin magnetic nanoparticles; chain copies: 5; single strand, small loop predicted by Mfold (dG -2.93 kcal/mol).

GTTGACGGGCGATTGGTCTT (ssDNA) [PF20N-RO-MARAS-84-1]: the Kd was 23.6 ± 0.82 nM.
